The test addresses NHE1-ECL1-rIgG, the first extracellular loop of the ALV-J receptor NHE1 fused to rabbit IgG Fc (expressed in DF-1 cells) (chicken).

Among the data in PMC8865534 are reduction of ALV-J infection (p27 mRNA level by qPCR) of DF-1 cells transfected with 250 ng pCAGGS-env(wt) for 2 days; the receptor is the endogenous NHE1 of DF-1 cells values, retold here.

With “Env protein (envelope glycoprotein, gp85-gp37) of ALV-J strain TBC-J6, wild type (natural protein)”, the reduction of ALV-J infection (p27 mRNA level by qPCR) of DF-1 cells transfected with 250 ng pCAGGS-env(wt) for 2 days; the receptor is the endogenous NHE1 of DF-1 cells is 91%.
